The target in assay [1] is human KRAS^G12V (residues 1-169) (human) (UniProt P01116). The assay is described as follows: stopped-flow fluorescence kinetics.
In assay [2] the target is human SOS1 (residues 564-1049), SOS1^cat (Homo sapiens, UniProt Q07889, labelled with Alexa488 for flow cytometry (SOS1-488)). The assay is described as follows: BLI.

This is an account of results in article doi:10.1101/2022.12.06.519258 (bioRxiv, 2022).

For the molecule “human SOS1 (residues 564-1049), SOS1^cat (from UniProt Q07889 564-1049) (domain or fragment)”, in assay [1], the fold decrease of KD1 with Nb22 against SOS1 alone was 3.1 fold, the fold increase of k1 (kon) with excess Nb22 against SOS1 alone was 4 fold, the kon is 4.2e+06 M⁻¹ s⁻¹ and the ratio of k-1 (koff) with Nb14 to SOS1 alone worked out at 0.3 fold.

B1: Nanobody Nb77 (VHH)
VHH: QVQLVESGGGLVQPGGSLRLSCAASRSISSINIMGWYRQAPGKERESVASHTRDGSTDYADSVKGRFTISRDNAKNTVYLQMNSLKPEDTAVYYCTTLTGFPRIRSWGQGTQVTVSS
In the case of B1, in assay [2], binding was put at a Kd of 70 ± 10 nM.

What is called kon is a measure of how fast the partners come together. Read a low kon as slower complex formation. A word on the Kd: it is the equilibrium constant for the complex coming apart. Low readings indicate higher affinity, high ones lower affinity.
